B1: AaIT: excitatory insect-selective scorpion toxin from Androctonus australis (protein, UniProt P01497 19-88, looked up)
Beta-insect excitatory toxin 1: KKNGYAVDSSGKAPECLLSNYCNNECTKVHYADKGYCCLLSCYCFGLNDDKKVLEISDTRKSYCDTTIIN
B2: LqhIV (protein)
peptide: GVRDAYIADDKNCVYTCGANSYCNTECTKNGAESGYCQWFGKYGNACWCIKLPDKVPIRIPGKCR
B3: LqhVI (protein)
chain: GVRDGYIAQPENCVYHCFPGSPGCDTLCKGDGASSGHCGFKEGHGLACWCNDLPDKVGIIVEGEKCH

Assays:
Type in all cases: in vivo
[1] = tested on: Sarcophaga falculata larvae; experiment: Paralysis (PU50) of blow fly larvae after toxin injection; settings: single toxin injected; contraction paralysis immediately, or flaccid/delayed paralysis 5 minutes after injection
Procedure: (§1) The activities of four different insect toxins towards two different insects and towards mice were determined (since one prefers to use insect toxins that have little or no effect on mammals). These were purified by established methods from the respective crude venoms. Their toxicity towards mice and larvae of blow fly and lepidoptera was determined according to the method of Reed and Muench (1938).
(§2) The PU50 values of the toxins to blow fly larvae were in accordance with previously published results (Zlotkin et al., Biochim, 53, 1075-1078 (1971); and Eitan et al., Biochem., 29, 5941-5947 (1990)). […]
one of the toxins and the PU50 were determined. The PU50 of
excitatory toxins AaIT, LqhVI, and LqhIT3 was determined as a
contraction paralysis immediately after injection. The PU50 of the
depressant toxin LqhIT2 was determined as a flaccid paralysis 5
after injection. The PU50 of the α insect toxins LqhαIT

[2] = tested on: Heliothis virescens larvae; experiment: Paralysis (PU50) of lepidopterous larvae after toxin injection; settings: single toxin injected; inability to move or turn when inverted, 24 hours after injection
Procedure: as §1, §2
each one of the toxins and the PU50 was determined as inability to
or turn when inverted on its back 24 hours after injection. […]

Swiss Webster mice = experiment: LD50 to mice, subcutaneous injection; settings: for toxicity towards mice / mammals (in words): Swiss Webster mice; for LD50 to Swiss Webster mice: single toxin, subcutaneous, 24 hours after injection
Procedure: as §1
The PU50 values of the toxins to blow fly larvae were in accordance with previously published results (Zlotkin et al., Biochim, 53, 1075-1078 (1971); and Eitan et al., Biochem., 29, 5941-5947 (1990)).
(§3) ^c Two replicates of eight mice were injected subcutaneously and the
to mice was determined 24 hours after injection.
as §3
LD50 to mice was determined 24 hours after injection.

Molecule	PU50 to Sarcophaga falculata larvae [1] [μg/100 mg b.w.]	PU50 to Heliothis virescens larvae [2] [μg/100 mg b.w.]	toxicity towards mice / mammals (in words) (Swiss Webster mice)	LD50 to Swiss Webster mice (Swiss Webster mice) [μg/20 g b.w.]
LqhαIT: α insect toxin from yellow scorpion Leuirus quinquestriatus hebraeus	0.0025	2.5	higher toxicity	8.0
B1	0.0025	2.5	–	> 60
B2	0.1	0.5	no or weak mammal toxicity	12
B3	0.006	3.0	weak mammal toxicity	> 60

— patent US5756340A, “Insect control with multiple toxins” (The Regents of the University of California, priority 1995, dated 1998)
